Article PMC8932913

Molecular target: recombinant Hbl B’ of B. cereus strain F837/76 (Bacillus cereus strain F837/76)
Assay: SPR; Biacore S200; rHbl B’ amine-coupled (350 RU) on a CM5 chip; rHbl L1, L2 or B injected at 7.8125 nM to 2 µM, 30 µl/min, 20°C; running buffer PBS, 1 mM DTT, 0.005% Tween 20; 1:1 binding model; three experiments

Substance: recombinant Hbl L1 (natural protein)
- Kd: 131 nM
